The test deals with syntaxin-1, endogenous in cultured mouse neurons (mouse (endogenous in cultured neurons of Syt1 KO mice)) (UniProt O35526). In words: co-IP.
Chain of UniProt O35526 (O35526 whole entry): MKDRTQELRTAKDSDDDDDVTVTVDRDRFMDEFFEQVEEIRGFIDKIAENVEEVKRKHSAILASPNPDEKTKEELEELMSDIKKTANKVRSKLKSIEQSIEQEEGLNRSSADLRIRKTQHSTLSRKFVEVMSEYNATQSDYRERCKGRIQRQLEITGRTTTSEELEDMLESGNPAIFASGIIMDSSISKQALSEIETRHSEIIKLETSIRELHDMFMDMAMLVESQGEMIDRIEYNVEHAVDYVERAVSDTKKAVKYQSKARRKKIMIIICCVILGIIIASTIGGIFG

In turn, “Synaptotagmin-1 R322E K325E mutant, expressed in Syt1 KO neurons (from UniProt P21707 1-421) (natural protein)” showed a decrease of co-immunoprecipitated Syt1 against WT Syt1 of 62%.

(Values after PMC4496268.)
